T1: soluble PSCA fused human IgG1 or mouse IgG2a Fc (UniProt O43653 12-86, limits assumed)
T1 construct: also called PSCA-Fc; not shown: human IgG1 Fc or mouse IgG2a Fc
T1 sequence (looked up): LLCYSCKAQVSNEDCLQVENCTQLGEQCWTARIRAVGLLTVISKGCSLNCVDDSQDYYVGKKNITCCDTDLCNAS


Legend:
[1] = biological target: T1, soluble PSCA fused human IgG1 or mouse …; assay: competitive ELISA on coated PSCA-Fc, biotinylated mu1G8 as tracer
Experimental: (§1) The relative binding affinities of the antibodies were measured by competitive ELISA using biotinylated mu1G8 as tracer. Wells were coated with soluble PSCA fused human IgG1 or mouse IgG2a Fc that had been expressed in pEE12 as described above and purified by Protein A affinity chromatography (Poros2.0; PerkinElmer, Wellesley, Mass.). A fixed concentration of biotinylated parental antibody and increasing concentrations of non-biotinylated competitors were used as previously described (Olafsen 2004). Detection of biotinylated antibody was made with alkaline phosphatase-conjugated streptavidin (Jackson ImmunoResearch Laboratories).

[2] = biological target: T1, soluble PSCA fused human IgG1 or mouse …; assay: relative binding affinity, competitive ELISA
Experimental: as §1

| Kd [1] | fold higher relative binding affinity compared to hu1G8-A [2] | fold lower binding affinity than mu1G8 [2] | Binder |
| --- | --- | --- | --- |
| ~5 nM |  |  | murine monoclonal antibody 1G8 (antibody, V domains shown, Intact murine antibody from hybridoma; also called mu1G8; parental mu1G8) VH: EVQLQQSGAELVRSGASVKLSCTASGFNIKDYYIHWVNQRPDQGLEWIGWIDPENGDTEFVPKFQGKATMTADIFSNTAYLHLSSLTSEDTAVYYCKTGGFWGQGTLVTVSA VL: QVVLTQSPAIMSASPGEKVTMACSASSSVRFIHWYQQKSGTSPKRWIYDTSKLASGVPTRFSGSGSGTSYSLTISTMEAEDAATYYCQQWSSSPFTFGSGTKLIIK |
| ~25 nM | 6 fold | ~5 fold | humanized 1G8 antibody hu1G8-B (antibody, V domains shown, Labelled with 124I in the immunoreactivity assays; also called M6B; clone 2B3) VH: EVQLVESGGGLVQPGGSLRLSCAASGFNIKDYYIHWVRQAPGKGLEWVAWIDPENGDTEFVPKFQGRATISADTSKNTAYLQMNSLRAEDTAVYYCKTGGFWGQGTLVTVSS VL: DIQLTQSPSSLSASVGDRVTITCSASSSVRFIHWYQQKPGKAPKRLIYDTSKLASGVPSRFSGSGSGTDFTLTISSLQPEDFATYYCQQWSSSPFTFGQGTKVEIK |
| ~150 nM |  |  | humanized 1G8 antibody hu1G8-A (antibody, V domains shown, also called M6A) VH: EVQLVESGGGLVQPGGSLRLSCAASGFNIKDYYIHWVRQAPGKGLEWVAWIDPENGDTEFADSVKGRFTISADTSKNTAYLQMNSLRAEDTAVYYCKTGGFWGQGTLVTVSS VL: DIQLTQSPSSLSASVGDRVTITCSASSSVRFIHWYQQKPGKAPKRLIYDTSKLASGVPSRFSGSGSGTDFTLTISSLQPEDFATYYCQQWSSSPFTFGQGTKVEIK |

— US20060269557A1 (CITY OF HOPE, published 2006)
